Data reported in the nanobody polyreactivity screen of Harvey et al. (2022).

Experiment: yeast display, Sf9 membrane polyspecificity reagent, FACS + sequencing; frameworks hold sequencing errors
How it was run: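 Polyreactivity labels are assigned by the sorting gate from which each nanobody was recovered. The gates were low and high (top ~1%), set on anti-HA fluorescence for expression and streptavidin fluorescence for reagent binding. Before sorting, galactose-induced (36–48 hours) yeast display cells were stained for 1 hour at 4 °C with 10% biotinylated, detergent-solubilized Sf9 membrane reagent.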

## QVQLVESGGGLVQAGGSLRLSCAASGFTFYNNAMGGYRQAPGKERELVAVITSNGGRTYYADSVKGRFTISRDNAKNTVYLQMNSLKPEDTAVYYCAKRGYGYGDGAYYYWGQGTQVTVSS
  polyreactivity (PSR sort gate): low polyreactivity

## QVQLVESGGGLVQAGGSLRLSCAASGFTFYNNAMGWYRQAPGKERELVAGIARRGGSTSYADSVKGRFTISRDNAKNSVYLQMNSLKPEDTEVYYCAKQDYSPYYPYDYWGLGTQVTVSS
  polyreactivity (PSR sort gate): high polyreactivity

## QVQLVESGGGLVQAGGSLRLSCAASGFTFYNYAKGWYIQAPGNERELVAAITSRGGSTYYADSVKGRFTISRDNAKNTVYLQMNSLKPEDTAVYYCAAGYVHYGWFELDYWGQGTQVTVSS
  polyreactivity (PSR sort gate): low polyreactivity

## QVQLVESGGGLVQAGGSLRLSCAASGFTFYNYAMGWYRQAPGKERELVAAITSRGGSTYYADSVKGRFTISRDNAKNTVYLQMNSLKPEDTAVYYCNAVAKLYYWRYDYWGQGTQVTVSS
  polyreactivity (PSR sort gate): low polyreactivity

## QVQLVESGGGLVQAGGSLRLSCAASGFTFYPNAMGWYRQAPGNERELVATITGSGGSTNYADSVKGRFTISRDTAKNTVYLHMNRLKPEDTAVYYCAADYAVYSFTEFNYWGQVTQVTVSS
  polyreactivity (PSR sort gate): high polyreactivity

## QVQLVESGGGLVQAGGSLRLSCAASGFTFYPYAMGWYRQAPGKERELVASFTSAGGTNYADSVKGRFTISRDNAKNTVYLQMNSLKPEDTAVYYCAAKYRSRGPDYYFKSDYWGQGTQVTVSS
  polyreactivity (PSR sort gate): low polyreactivity

## QVQLVESGGGLVQAGGSLRLSCAASGFTFYPYAMGWYRQAPGKERELVASITSAGGTNYADSVKGRFTISRDNAKNTVYLQMNSLKPEDTAVYYCAAKYRSRGPDYYFKSDYWGQGTQVTVSS
  polyreactivity (PSR sort gate): low polyreactivity

## QVQLVESGGGLVQAGGSLRLSCAASGFTFYPYSMGWYRQAPGKERELVAAIRGSGGSTHYADSVKGRFTISRDNAKNTVYLQMNSLKPEDTAVYYCAARIRGYRQYGTYYYWGQGTQVTVSS
  polyreactivity (PSR sort gate): high polyreactivity

## QVQLVESGGGLVQAGGSLRLSCAASGFTFYQYAMGWYRQAPGKERELVAAITWNGGSTFYADSVKGRFTISRDNAKNTVYLQMNSLKPEDTAVYYCAARQYFSSYYEYDYWGQGTQVTVSS
  polyreactivity (PSR sort gate): high polyreactivity

## QVQLVESGGGLVQAGGSLRLSCAASGFTFYQYTMGRYRQAPGKERELVATITSDGGTNYADSVKGRFTISRDNAKNTVYLQMNSLKPEDTAVYYCARDYLSPYAVDYWGQGTQVTVSS
  polyreactivity (PSR sort gate): low polyreactivity

## QVQLVESGGGLVQAGGSLRLSCAASGFTFYRNAMGWSRKAPGKERELVAAISTSGGSTHYADSVKGRFTISRDNAKNTVYLQMNSLKPEDTAVYYCAKRRSIRDEFGYWGQGTQVTVSS
  polyreactivity (PSR sort gate): high polyreactivity

## QVQLVESGGGLVQAGGSLRLSCAASGFTFYRNAMGWYRQAPGKERELVAAISRGGRTYYADSVKGRFTISRDNAKNTVYLQMNSLKQEDTAVYYCAADFYIKYSEFDYWGQGTQVTVSS
  polyreactivity (PSR sort gate): high polyreactivity

## QVQLVESGGGLVQAGGSLRLSCAASGFTFYRNAMGWYRQAPGKERELVAAITRRGGSTYYADSVKGRFTISRDNAKNTVYLQMISLKPEDTAVYYCSKSYRFPSVGPPGELDYWGQGTQVTVSS
  polyreactivity (PSR sort gate): high polyreactivity

## QVQLVESGGGLVQAGGSLRLSCAASGFTFYRNDIGWYRQAPGKERELVAAITFSGGITYYADSVKGRFTISRDNAKNTVYLQMNSLKAEDTAVYYCAAEGVGAARVYQGGEYNYWGQGTQVTVSS
  polyreactivity (PSR sort gate): low polyreactivity

## QVQLVESGGGLVQAGGSLRLSCAASGFTFYRNTMGWYRQAPGKERELVARIRSVGSTYYADSVKGRFTISRDNAKNTVFLQMNSLKREDTAVYYCAAGPVYDWRGGALRYYYWGQGTQVTVSS
  polyreactivity (PSR sort gate): high polyreactivity

## QVQLVESGGGLVQAGGSLRLSCAASGFTFYRYAMGWYRQAPGKERELVAAISWSGGTTYYADSVKGRFTISRDNAKNTVYLQMNSLKPEDTAVYYCNARFIARSGYKVDYDYWGQGTQVTVSS
  polyreactivity (PSR sort gate): high polyreactivity

## QVQLVESGGGLVQAGGSLRLSCAASGFTFYRYAMGWYRQAPGKERELVAAITRTGSTYYADSVKGRFTISRDNAKNTVYLQMNSLKPEDTAVYYCARRSLYFPSYGLYYWGQGTQVTVSS
  polyreactivity (PSR sort gate): high polyreactivity

## QVQLVESGGGLVQAGGSLRLSCAASGFTFYRYAMGWYRQAPGKERELVAAITSRGTSTYYADSVKGRFTISRDNAKNTVYLQMNSLKPEDTAVYYCAVKGYRYGTRYDYWGQGTQVTVSS
  polyreactivity (PSR sort gate): high polyreactivity

## QVQLVESGGGLVQAGGSLRLSCAASGFTFYRYAMGWYRQAPGKERELVAAITSRSGITYYADSVKGRFTISRDNAKNTVYLQMNSLKPEDTAVYYCGAYVSRSTEFDYGYWGQGTQVTVSS
  polyreactivity (PSR sort gate): high polyreactivity

## QVQLVESGGGLVQAGGSLRLSCAASGFTFYRYGMGWYRPPPGKERELVAAINNDGTTNYADSVKGRFTISRDNAKNTVYLQLNSLKPEDTAVYYCAADYYRGRYSYRYDYWGQGTQVTVSS
  polyreactivity (PSR sort gate): low polyreactivity

## QVQLVESGGGLVQAGGSLRLSCAASGFTFYRYTMGWSRQAPGKERELVAAISARGVSTYYADSVKGRFTISRDNAKNTVYLQMNCLKPEDTAVYYCYVSRYDSWGQGTQVTVSS
  polyreactivity (PSR sort gate): high polyreactivity

## QVQLVESGGGLVQAGGSLRLSCAASGFTFYSNAMGWYRQAPGKERELVAAISFSGTRTYYADSVKGRFTISRDNAKNTVYLQMNSLKPEDTAVYYCNAVAYNYPRTYDYWGQGTQVTVSS
  polyreactivity (PSR sort gate): high polyreactivity

## QVQLVESGGGLVQAGGSLRLSCAASGFTFYSNDMGWYRQAPGKERELVAAISYSGGSTYYADSVKGRFTISRDNAKNTVYLQMKRLNPEDTAVYYCAAGGLQQGDYWGQGTQVTVSS
  polyreactivity (PSR sort gate): low polyreactivity

## QVQLVESGGGLVQAGGSLRLSCAASGFTFYSYAMGWYRQAPGKERELVAAISWSGTRTYYADSVKGRFTISRDNGKNTVYLQMTSLKPEVTAVYYCAGRGYRYGYGYWGQGTQVTVSS
  polyreactivity (PSR sort gate): high polyreactivity

## QVQLVESGGGLVQAGGSLRLSCAASGFTFYSYAMGWYRQAPGKERELVATISSGGRTYYADSVKGRFTISRDNAKNTVYLQMNSLKPEDTAVYYCAARWRPHPFAPPGYYSWGQGTQVTVSS
  polyreactivity (PSR sort gate): high polyreactivity

## QVQLVESGGGLVQAGGSLRLSCAASGFTFYTNAMGWYRQAPGHERELVARISRRGGSTYYADSVKGRFTISRDNAKNTVYLQMNSLKPEDTAVYYCNADGRAAVQYDYWGQGTQVTVSS
  polyreactivity (PSR sort gate): high polyreactivity

## QVQLVESGGGLVQAGGSLRLSCAASGFTFYTNAMGWYRQAPGKERELVAAISKRGASTYYADSVKGRFTISRDNAKNTVYLQMNSLKPEDTAVYYCAASSRTHGSYDYWGQGTQVTVSS
  polyreactivity (PSR sort gate): high polyreactivity

## QVQLVESGGGLVQAGGSLRLSCAASGFTFYTNAMGWYRQAPGKERELVAAITKSDGSTYYADSVKGRFTISRDNAKNTVYLQMNSLKPEDTAVYYCATERRYPYYGGIVIYDYWGQGTQVTVSS
  polyreactivity (PSR sort gate): low polyreactivity

## QVQLVESGGGLVQAGGSLRLSCAASGFTFYTYAMGWYRQAPGKEMELVADISSGGSTNYADSVKGRFTISRDNAKNTVYLQMNSLKPEDTAVYYCSADYYFLDWYDYWGQGTQVTVSS
  polyreactivity (PSR sort gate): low polyreactivity

## QVQLVESGGGLVQAGGSLRLSCAASGFTFYVNAMGWYRQATGKERELVAAISSRGGSTYYADSVKGRFTISRDNAKNTVYLQMNSLKPEDTAVYYCNRVRDQRRYEYWGQGTQVTVSS
  polyreactivity (PSR sort gate): high polyreactivity

## QVQLVESGGGLVQAGGSLRLSCAASGFTFYVYARGWYRQAPGKERQLVAAISRSGGSTYYADSVKGSFTISRDNAKNTVYLQMQSLKPEDTAVYYCAVVQRYWYPGIVPYDYWGQGSQVTVSS
  polyreactivity (PSR sort gate): high polyreactivity

## QVQLVESGGGLVQAGGSLRLSCAASGFTFYWYDMGWYRQAPGKEWELVATMSPGGGTNYADSVKGRFTISRDNAKNTVSLQMNSLKPEDTSVYYCAADGSAGYQWGYDFEGDYWGQGTQLTVSS
  polyreactivity (PSR sort gate): high polyreactivity

## QVQLVESGGGLVQAGGSLRLSCAASGFTFYYAMGWYRQAPGKERELVAAISSSGARTYYADSVKGRFTISRDNAKYTVYLQMNSLKPEDTAVYYCAARRYYKFYYWGQGTQVTVSS
  polyreactivity (PSR sort gate): high polyreactivity

## QVQLVESGGGLVQAGGSLRLSCAASGFTFYYNAMGWYRQAPGKERELVASIRSGGSTKYADSVKGRFTISRDNAKNTVYLQMNSLKPEDTAVYYCAKERYHISFFYQMVYWGQGTQVTVSS
  polyreactivity (PSR sort gate): low polyreactivity

## QVQLVESGGGLVQAGGSLRLSCAASGFTFYYNAMGWYRQAPGKERELVASISSNGTSTYYADSVKGRFTISRDNAMNTVYLQMNSLKPEDTAVYYCNVDIFDPRTYDYWGQGTQVTVSS
  polyreactivity (PSR sort gate): low polyreactivity

## QVQLVESGGGLVQAGGSLRLSCAASGFTFYYNAMGWYRQAPGKERELVASISSNGTSTYYADSVKGRFTISRDNAMYTVYLQMNSLKPEDTAGYYCAADDVCVYWSSTHNWARGDYWGQGSQVTVSS
  polyreactivity (PSR sort gate): low polyreactivity

## QVQLVESGGGLVQAGGSLRLSCAASGFTFYYYAMGWYRQAPGKERELVAAINWSGGTTYYADSVKGRFTISRDNAKNTVYLQMNSLKPEDTAVYYCAVSVFTVAPYRRYDYWGQGTQVTVSS
  polyreactivity (PSR sort gate): high polyreactivity

## QVQLVESGGGLVQAGGSLRLSCAASGFTFYYYAMGWYRQAPGKERELVAAISIGGSTYYAGSVKGRFTISRHNEKNTVYLQMNSLKPEDTAVYYCNVVFTYWPPGTARYDYSGQGTQVTVSS
  polyreactivity (PSR sort gate): high polyreactivity

## QVQLVESGGGLVQAGGSLRLSCAASGFTFYYYAMGWYRQAPGKERELVAAISSSGGSTSYADSVKGRFTISRDNAKNTVYLQMNSLKPEDTAVYYCAAVYWQSGRGKMCYWGQGTQVTVSS
  polyreactivity (PSR sort gate): high polyreactivity

## QVQLVESGGGLVQAGGSLRLSCAASGFTFYYYAMGWYRQAPGKESELVAAITWSGDITSYADSVKGRFTISRDNAKNTVYLQMNSLKPEDTAVYYCAAYVYVPGYNAAYDYWGQGTQVTVSS
  polyreactivity (PSR sort gate): low polyreactivity

## QVQLVESGGGLVQAGGSLRLSCAASGFTFYYYMGCYRQAPGKERELVAAITSGDTTYYADSVKGRFTISRDNAKNTVYLQMNSLKPEDTAVYYCNVDQAIYRWVPWEMDYWGQGTQVTVSS
  polyreactivity (PSR sort gate): low polyreactivity

## QVQLVESGGGLVQAGGSLRLSCAASGFTIAYNAMGWYRQAPGKERDLVAAISSSGGRTYYADSVKGRFTISRDNAKNTVYFQMNSLKPEDTAVYYCATRPKVAYEYVYWGQGTQVTVSS
  polyreactivity (PSR sort gate): high polyreactivity

## QVQLVESGGGLVQAGGSLRLSCAASGFTIDGYAMGWYRQAPGKERELVAAIRRGGRTKYADSVKGRFTISRDNAKNTVYLQMNSLKPEDTAVYYCAADRSRRGHLTHGYWGQGTQVTVSS
  polyreactivity (PSR sort gate): high polyreactivity
